The results in this text go back to patent US20180135070A1 (BOARD OF TRUSTEES OF MICHIGAN STATE UNIVERSITY, published 2018).

The target in the assay is T1, MBP-JAZ9-8×His (recombinant, E. coli-expressed) (Arabidopsis, UniProt Q8W4J8 1-267, limits assumed).
T1 construct: procedure cited from Katsir et al. 2008; also called Escherichia coli-expressed JAZ9 protein
T1 sequence: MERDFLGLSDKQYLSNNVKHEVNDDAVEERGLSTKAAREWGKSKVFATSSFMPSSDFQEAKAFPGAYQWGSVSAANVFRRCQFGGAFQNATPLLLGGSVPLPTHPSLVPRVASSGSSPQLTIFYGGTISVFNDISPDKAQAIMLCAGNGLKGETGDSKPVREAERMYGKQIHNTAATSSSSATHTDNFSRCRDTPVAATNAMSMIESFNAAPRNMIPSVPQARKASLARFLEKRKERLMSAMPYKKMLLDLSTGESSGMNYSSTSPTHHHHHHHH
Briefly: Ni-resin pull-down of plant-expressed COI1-4×c-Myc with MBP-JAZ9-8×His, COR series, anti-c-Myc immunoblot.

Method: Pull-down assays were performed with protein extracts from 4-mg pCOI1:COI1WT/A384V-4×c-Myc plants and 25 μg recombinant MBP-JAZ9-8×His. […] Eighty microliters of Ni resin (Invitrogen) were added, followed by an additional 15-min incubation period at 4° C. MBP-JAZ9-8×Hisbound Ni resin was washed three times on microcentrifuge spin columns with 0.25 mL binding buffer at 4° C. MBP-JAZ9-8×His was eluted from the resin with 100 μL of 300 mM imidazole. Proteins bound to MBP-JAZ9-8×His were analyzed by immunoblotting for the presence of COI1WT/A384V-4×c-Myc using anti-cMyc antibody. MBP-JAZ9-8×His recovered by the Ni affinity resin was detected by Coomassie blue staining.

B1: COI1A384V-4×c-Myc (plant-expressed) (receptor, not shown: small tags and cut ends)
chain: MEDPDIKRCKLSCVATVDDVIEQVMTYITDPKDRDSASLVCRRWFKIDSETREHVTMALCYTATPDRLSRRFPNLRSLKLKGKPRAAMFNLIPENWGGYVTPWVTEISNNLRQLKSVHFRRMIVSDLDLDRLAKARADDLETLKLDKCSGFTTDGLLSIVTHCRKIKTLLMEESSFSEKDGKWLHELAQHNTSLEVLNFYMTEFAKISPKDLETIARNCRSLVSVKVGDFEILELVGFFKAAANLEEFCGGSLNEDIGMPEKYMNLVFPRKLCRLGLSYMGPNEMPILFPFAAQIRKLDLLYALLETEDHCTLIQKCPNLEVLETRNVIGDRGLEVLAQYCKQLKRLRIERGADEQGMEDEEGLVSQRGLIALAQGCQELEYMVVYVSDITNESLESIGTYLKNLCDFRLVLLDREERITDLPLDNGVRSLLIGCKKLRRFAFYLRQGGLTDLGLSYIGQYSPNVRWMLLGYVGESDEGLMEFSRGCPNLQKLEMRGCCFSERAIAAAVTKLPSLRYLWVQGYRASMTGQDLMQMARPYWNIELIPSRRVPEVNQQGEIREMEHPAHILAYYSLAGQRTDCPTTVRVLKEPI
notes: In protein extracts of transgenic Arabidopsis (coi1-30 background); C-terminal 4×c-Myc tag; also called pCOI1:COI1A384V-4×c-Myc
Regarding B1, the “fold higher COR concentration required for robust co-receptor formation, against COI1WT-JAZ9” value was around 100 fold.
